{"source": "the supplement of paper PMC10567573", "parents": {"B1": {"name": "EMID1 (parent)", "chain": "FTETNNHWPQGPTGPPGPPGPMGP"}, "B2": {"name": "OAS1 (parent)", "chain": "LQLGEGVEFDVLPAFDALGQLTGG"}}, "data": [{"variants_of": "B1", "experiment": "protein stability index of a GFP-peptide fusion (GPS, HEK-293T) (PSI 1-6); higher = more stable", "details": "c terminus: a fixed tail appended", "values": [{"variant": "FTETNNHWPQGPTGPPGPDGPMGP", "note": "[P19D]", "protein stability index": 2.68}, {"variant": "FTETNNHWPQGPTGPPGPIGPMGP", "note": "[P19I]", "protein stability index": 2.72}, {"variant": "FTETNNHWPQGPTGPPGPYGPMGP", "note": "[P19Y]", "protein stability index": 1.36}, {"variant": "FTETNNHWPQGPTGPPGPKGPMGP", "note": "[P19K]", "protein stability index": 1.94}, {"variant": "FTETNNHWPQGPTGPPGPEGPMGP", "note": "[P19E]", "protein stability index": 2.19}, {"variant": "FTETNNHWPQGPTGPPGPVGPMGP", "note": "[P19V]", "protein stability index": 1.89}, {"variant": "FTETNNHWPQGPTGPPGPSGPMGP", "note": "[P19S]", "protein stability index": 2}, {"variant": "FTETNNHWPQGPTGPPGPLGPMGP", "note": "[P19L]", "protein stability index": 2.41}, {"variant": "FTETNNHWPQGPTGPPGPGGPMGP", "note": "[P19G]", "protein stability index": 2.79}, {"variant": "FTETNNHWPQGPTGPPGPFGPMGP", "note": "[P19F]", "protein stability index": 1.79}, {"variant": "FTETNNHWPQGPTGPPGPNGPMGP", "note": "[P19N]", "protein stability index": 1.8}, {"variant": "FTETNNHWPQGPTGPPGPMGPMGP", "note": "[P19M]", "protein stability index": 1.93}, {"variant": "FTETNNHWPQGPTGEPGPPGPMGP", "note": "[P15E]", "protein stability index": 2.66}, {"variant": "FTETNNHWPQGPTGLPGPPGPMGP", "note": "[P15L]", "protein stability index": 2.34}, {"variant": "FTETNNHWPQGPTGIPGPPGPMGP", "note": "[P15I]", "protein stability index": 2.24}, {"variant": "FTETNNHWPQGPTGGPGPPGPMGP", "note": "[P15G]", "protein stability index": 2.44}, {"variant": "FTETNNHWPQGPTGWPGPPGPMGP", "note": "[P15W]", "protein stability index": 1.75}, {"variant": "FTETNNHWPQGPTGFPGPPGPMGP", "note": "[P15F]", "protein stability index": 2.11}, {"variant": "FTETNNHWPQGPTGNPGPPGPMGP", "note": "[P15N]", "protein stability index": 2.25}, {"variant": "FTETNNHWPQGPTGVPGPPGPMGP", "note": "[P15V]", "protein stability index": 1.93}, {"variant": "FTETNNHWPQGPTGYPGPPGPMGP", "note": "[P15Y]", "protein stability index": 2.58}, {"variant": "FTETNNHWPQGPTGKPGPPGPMGP", "note": "[P15K]", "protein stability index": 2.27}, {"variant": "FTETNNHWPQGPTGMPGPPGPMGP", "note": "[P15M]", "protein stability index": 2.02}, {"variant": "FTETNNHWPQGPTGQPGPPGPMGP", "note": "[P15Q]", "protein stability index": 2.21}, {"variant": "FTETNNHWPQGPTGDPGPPGPMGP", "note": "[P15D]", "protein stability index": 2.15}, {"variant": "FTETNNHWPQGPTGHPGPPGPMGP", "note": "[P15H]", "protein stability index": 2.62}, {"variant": "FTETNNHWPQGPTGRPGPPGPMGP", "note": "[P15R]", "protein stability index": 1.69}, {"variant": "FTETNNHWPQGPTGCPGPPGPMGP", "note": "[P15C]", "protein stability index": 2.68}, {"variant": "FTETNNHWPQGPTGSPGPPGPMGP", "note": "[P15S]", "protein stability index": 2.88}, {"variant": "FTETNNHWPQGPTGPPGDPGPMGP", "note": "[P18D]", "protein stability index": 2.68}, {"variant": "FTETNNHWPQGPTGPPGGPGPMGP", "note": "[P18G]", "protein stability index": 1.82}, {"variant": "FTETNNHWPQGPTGPPGIPGPMGP", "note": "[P18I]", "protein stability index": 1.93}, {"variant": "FTETNNHWPQGPTGPPGWPGPMGP", "note": "[P18W]", "protein stability index": 2.55}, {"variant": "FTETNNHWPQGPTGPPGSPGPMGP", "note": "[P18S]", "protein stability index": 2.45}, {"variant": "FTETNNHWPQGPTGPPGMPGPMGP", "note": "[P18M]", "protein stability index": 1.68}, {"variant": "FTETNNHWPQGPTGPPGVPGPMGP", "note": "[P18V]", "protein stability index": 2.37}, {"variant": "FTETNNHWPQGPTGPPGEPGPMGP", "note": "[P18E]", "protein stability index": 2.11}, {"variant": "FTETNNHWPQGPTGPPGRPGPMGP", "note": "[P18R]", "protein stability index": 2.56}, {"variant": "FTETNNHWPQGPTGPPGYPGPMGP", "note": "[P18Y]", "protein stability index": 2.33}, {"variant": "FTETNNHWPQGPTGPPGCPGPMGP", "note": "[P18C]", "protein stability index": 1.53}, {"variant": "FTETNNHWPQGPTGPPGNPGPMGP", "note": "[P18N]", "protein stability index": 1.47}, {"variant": "FTETNNHWPQGPTGPPGQPGPMGP", "note": "[P18Q]", "protein stability index": 1.93}, {"variant": "FTETNNHWPQGPTGPPGFPGPMGP", "note": "[P18F]", "protein stability index": 2}, {"variant": "FTETNNHWPQGPTGPPGLPGPMGP", "note": "[P18L]", "protein stability index": 2.17}, {"variant": "FTETNNHWPQGPTGPPGKPGPMGP", "note": "[P18K]", "protein stability index": 2.51}, {"variant": "FTETNNHWPQGPTGPDGPPGPMGP", "note": "[P16D]", "protein stability index": 2.56}, {"variant": "FTETNNHWPQGPTGPMGPPGPMGP", "note": "[P16M]", "protein stability index": 2.47}, {"variant": "FTETNNHWPQGPTGPYGPPGPMGP", "note": "[P16Y]", "protein stability index": 2.07}, {"variant": "FTETNNHWPQGPTGPSGPPGPMGP", "note": "[P16S]", "protein stability index": 2.1}, {"variant": "FTETNNHWPQGPTGPKGPPGPMGP", "note": "[P16K]", "protein stability index": 1.83}, {"variant": "FTETNNHWPQGPTGPNGPPGPMGP", "note": "[P16N]", "protein stability index": 2.23}, {"variant": "FTETNNHWPQGPTGPVGPPGPMGP", "note": "[P16V]", "protein stability index": 3.19}, {"variant": "FTETNNHWPQGPTGPTGPPGPMGP", "note": "[P16T]", "protein stability index": 2.58}, {"variant": "FTETNNHWPQGPTGPAGPPGPMGP", "note": "[P16A]", "protein stability index": 2.65}, {"variant": "FTETNNHWPQGPTGPLGPPGPMGP", "note": "[P16L]", "protein stability index": 2.14}, {"variant": "FTETNNHWPQGPTGPEGPPGPMGP", "note": "[P16E]", "protein stability index": 2.54}, {"variant": "FTETNNHWPQGPTGPIGPPGPMGP", "note": "[P16I]", "protein stability index": 2.33}, {"variant": "FTETNNHWPQGPTGPRGPPGPMGP", "note": "[P16R]", "protein stability index": 2.52}, {"variant": "FTETNNHWPQGPTGPFGPPGPMGP", "note": "[P16F]", "protein stability index": 2.02}, {"variant": "FTETNNHWPQGPTGPCGPPGPMGP", "note": "[P16C]", "protein stability index": 2.5}, {"variant": "FTETNNHWPQGPTGPGGPPGPMGP", "note": "[P16G]", "protein stability index": 2.4}]}, {"variants_of": "B2", "experiment": "protein stability index of a GFP-peptide fusion (GPS, HEK-293T) (PSI 1-6); higher = more stable", "details": "c terminus: a fixed tail appended", "values": [{"variant": "LQLGEGVEFDVLPAFDALGQLTAG", "note": "[G23A]", "protein stability index": 2.33}, {"variant": "LQLGEGVEFDVLPAFDALGQLTFG", "note": "[G23F]", "protein stability index": 1.51}, {"variant": "LQLGEGVEFDVLPAFDALGQLTCG", "note": "[G23C]", "protein stability index": 1.52}, {"variant": "LQLGEGVEFDVLPAFDALGQLTIG", "note": "[G23I]", "protein stability index": 1.19}, {"variant": "LQLGEGVEFDVLPAFDALGQLTVG", "note": "[G23V]", "protein stability index": 2.33}, {"variant": "LQLGEGVEFDVLPAFDALGQLTPG", "note": "[G23P]", "protein stability index": 2.03}, {"variant": "LQLGEGVEFDVLPAFDALGQLTQG", "note": "[G23Q]", "protein stability index": 2.58}, {"variant": "LQLGEGVEFDVLPAFDALGQLTGQ", "note": "[G24Q]", "protein stability index": 1.98}, {"variant": "LQLGEGVEFDVLPAFDALGQLTGD", "note": "[G24D]", "protein stability index": 1.94}, {"variant": "LQLGEGVEFDVLPAFDALGQLTGW", "note": "[G24W]", "protein stability index": 1.45}, {"variant": "LQLGEGVEFDVLPAFDALGQLTGP", "note": "[G24P]", "protein stability index": 1.64}, {"variant": "LQLGEGVEFDVLPAFDALGQLTGK", "note": "[G24K]", "protein stability index": 2.49}, {"variant": "LQLGEGVEFDVLPAFDALGQLTGY", "note": "[G24Y]", "protein stability index": 2.55}, {"variant": "LQLGEGVEFDVLPAFDALGCLTGG", "note": "[Q20C]", "protein stability index": 1.29}, {"variant": "LQLGEGVEFDVLPAFDALGRLTGG", "note": "[Q20R]", "protein stability index": 1.51}, {"variant": "LQLGEGVEFDVLPAFDALGGLTGG", "note": "[Q20G]", "protein stability index": 1.82}, {"variant": "LQLGEGVEFDVLPAFDALGELTGG", "note": "[Q20E]", "protein stability index": 2.02}, {"variant": "LQLGEGVEFDVLPAFDALGTLTGG", "note": "[Q20T]", "protein stability index": 1.76}, {"variant": "LQLGEGVEPDVLPAFDALGQLTGG", "note": "[F9P]", "protein stability index": 3.64}, {"variant": "LQLGEGVESDVLPAFDALGQLTGG", "note": "[F9S]", "protein stability index": 4.03}, {"variant": "LQLGEGVEHDVLPAFDALGQLTGG", "note": "[F9H]", "protein stability index": 4.18}, {"variant": "LQLGEGVEKDVLPAFDALGQLTGG", "note": "[F9K]", "protein stability index": 3.69}, {"variant": "LQLGEGVEFHVLPAFDALGQLTGG", "note": "[D10H]", "protein stability index": 1.5}, {"variant": "LQLGEGVEFGVLPAFDALGQLTGG", "note": "[D10G]", "protein stability index": 2.03}, {"variant": "LQLGEGVEFKVLPAFDALGQLTGG", "note": "[D10K]", "protein stability index": 1.99}, {"variant": "LQLGEGVEFSVLPAFDALGQLTGG", "note": "[D10S]", "protein stability index": 2}, {"variant": "LQLGEGVEFTVLPAFDALGQLTGG", "note": "[D10T]", "protein stability index": 1.36}, {"variant": "LQLGEGVEFDTLPAFDALGQLTGG", "note": "[V11T]", "protein stability index": 2.21}, {"variant": "LQLGEGVEFDFLPAFDALGQLTGG", "note": "[V11F]", "protein stability index": 1.59}, {"variant": "LQLGEGVEFDHLPAFDALGQLTGG", "note": "[V11H]", "protein stability index": 2.83}, {"variant": "LQLGEGVEFDSLPAFDALGQLTGG", "note": "[V11S]", "protein stability index": 2.59}, {"variant": "LQLGEGVEFDRLPAFDALGQLTGG", "note": "[V11R]", "protein stability index": 2.54}, {"variant": "LQLGEGVEFDVLPAFDAGGQLTGG", "note": "[L18G]", "protein stability index": 3.58}]}]}
